Results from article PMC7821230.

Biological target: BCL‐xL (UniProt Q07817)
Assay: crystal structure; co-crystals of Affimer and target, solved by molecular replacement with Phaser

BCL‐xL (from UniProt Q07817-1 1-233) (natural protein)
stoichiometry N: 2
